{
  "source": "patent CN114874330A",
  "key": {"[1]": {"biological_target": "BCMA-CAR (CAR with the CT103A scFv) on cells", "sequence (chain, as listed by the source)": "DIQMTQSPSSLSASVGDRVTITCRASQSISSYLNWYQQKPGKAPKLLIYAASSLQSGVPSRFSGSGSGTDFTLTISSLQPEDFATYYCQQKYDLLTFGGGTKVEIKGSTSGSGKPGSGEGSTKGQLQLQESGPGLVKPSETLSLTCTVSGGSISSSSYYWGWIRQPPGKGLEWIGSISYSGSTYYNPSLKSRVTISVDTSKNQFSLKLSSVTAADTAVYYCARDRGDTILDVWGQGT", "assay": "flow cytometry, AF647-labelled antibody on BCMA-CAR-Jurkat cells; SECOND series, also printed as 12F1 (possibly 6G8), 2-fold dilution step 1 of 10 (highest)", "design": "scale not given here"}, "[2]": {"biological_target": "BCMA-CAR (CAR with the CT103A scFv) on cells", "assay": "flow cytometry, AF647-labelled antibody on BCMA-CAR-Jurkat cells; first series, 2-fold dilution step 8 of 10", "design": "scale not given here"}, "[3]": {"biological_target": "BCMA-CAR (CAR with the CT103A scFv) on cells", "assay": "flow cytometry, AF647-labelled antibody on BCMA-CAR-Jurkat cells; SECOND series, also printed as 12F1 (possibly 6G8), step 10 of 10 (lowest)", "design": "scale not given here"}, "[4]": {"biological_target": "BCMA-CAR (CAR with the CT103A scFv) on cells", "assay": "flow cytometry, AF647-labelled antibody on BCMA-CAR-Jurkat cells; first series, 2-fold dilution step 10 of 10 (lowest)", "design": "scale not given here"}, "[5]": {"biological_target": "BCMA-CAR (CAR with the CT103A scFv) on cells", "assay": "flow cytometry, AF647-labelled antibody on BCMA-CAR-Jurkat cells; SECOND series, also printed as 12F1 (possibly 6G8), step 7 of 10", "design": "scale not given here"}, "[6]": {"biological_target": "BCMA-CAR (CAR with the CT103A scFv) on cells", "assay": "flow cytometry, AF647-labelled antibody on BCMA-CAR-Jurkat cells; first series, 2-fold dilution step 9 of 10", "design": "scale not given here"}, "[7]": {"biological_target": "BCMA-CAR (CAR with the CT103A scFv) on cells", "assay": "flow cytometry, AF647-labelled antibody on BCMA-CAR-Jurkat cells; first series, 2-fold dilution step 6 of 10", "design": "scale not given here"}, "[8]": {"biological_target": "BCMA-CAR (CAR with the CT103A scFv) on cells", "assay": "flow cytometry, AF647-labelled antibody on BCMA-CAR-Jurkat cells; SECOND series, also printed as 12F1 (possibly 6G8), step 9 of 10", "design": "scale not given here"}, "[9]": {"biological_target": "BCMA-CAR (CAR with the CT103A scFv) on cells", "assay": "flow cytometry, AF647-labelled antibody on BCMA-CAR-Jurkat cells; SECOND series, also printed as 12F1 (possibly 6G8), step 2 of 10", "design": "scale not given here"}, "[10]": {"biological_target": "BCMA-CAR (CAR with the CT103A scFv) on cells", "assay": "flow cytometry, AF647-labelled antibody on BCMA-CAR-Jurkat cells; first series, 2-fold dilution step 2 of 10", "design": "scale not given here"}, "[11]": {"biological_target": "BCMA-CAR (CAR with the CT103A scFv) on cells", "assay": "flow cytometry, AF647-labelled antibody on BCMA-CAR-Jurkat cells; SECOND series, also printed as 12F1 (possibly 6G8), step 8 of 10", "design": "scale not given here"}, "[12]": {"biological_target": "BCMA-CAR (CAR with the CT103A scFv) on cells", "assay": "flow cytometry, AF647-labelled antibody on BCMA-CAR-Jurkat cells; SECOND series, also printed as 12F1 (possibly 6G8), step 3 of 10", "design": "scale not given here"}, "[13]": {"biological_target": "BCMA-CAR (CAR with the CT103A scFv) on cells", "assay": "flow cytometry, AF647-labelled antibody on BCMA-CAR-Jurkat cells; first series, 2-fold dilution step 5 of 10", "design": "scale not given here"}, "[14]": {"biological_target": "BCMA-CAR (CAR with the CT103A scFv) on cells", "assay": "flow cytometry, AF647-labelled antibody on BCMA-CAR-Jurkat cells; first series, 2-fold dilution step 4 of 10", "design": "scale not given here"}, "[15]": {"biological_target": "CT103A scFv", "sequence (scFv, as listed by the source)": "as the sequence (chain, as listed by the source) above", "assay": "competition ELISA, antibody at 500 ng/ml pre-incubated with biotin-CT103A scFv; competitor: coated BCMA"}, "[16]": {"biological_target": "BCMA-CAR (CAR with the CT103A scFv) on cells", "assay": "flow cytometry, AF647-labelled antibody on BCMA-CAR-Jurkat cells; SECOND series, also printed as 12F1 (possibly 6G8), step 6 of 10", "design": "scale not given here"}, "[17]": {"biological_target": "BCMA-CAR (CAR with the CT103A scFv) on cells", "assay": "flow cytometry, AF647-labelled antibody on BCMA-CAR-Jurkat cells; first series, 2-fold dilution step 1 of 10 (highest); negative control MFI 0.18", "design": "scale not given here"}, "[18]": {"biological_target": "BCMA-CAR (CAR with the CT103A scFv) on cells", "assay": "flow cytometry, AF647-labelled antibody on BCMA-CAR-Jurkat cells; SECOND series, also printed as 12F1 (possibly 6G8), step 5 of 10", "design": "scale not given here"}, "[19]": {"biological_target": "BCMA-CAR (CAR with the CT103A scFv) on cells", "assay": "flow cytometry, AF647-labelled antibody on BCMA-CAR-Jurkat cells; SECOND series, also printed as 12F1 (possibly 6G8), step 4 of 10", "design": "scale not given here"}, "[20]": {"biological_target": "BCMA-CAR (CAR with the CT103A scFv) on cells", "assay": "flow cytometry, AF647-labelled antibody on BCMA-CAR-Jurkat cells; first series, 2-fold dilution step 3 of 10", "design": "scale not given here"}, "[21]": {"biological_target": "CT103A scFv", "assay": "competition ELISA, antibody at 1000 ng/ml pre-incubated with biotin-CT103A scFv; competitor: coated BCMA"}, "[22]": {"biological_target": "BCMA-CAR (CAR with the CT103A scFv) on cells", "assay": "flow cytometry, AF647-labelled antibody on BCMA-CAR-Jurkat cells; first series, 2-fold dilution step 7 of 10", "design": "scale not given here"}},
  "data": [
    {"binder": "12F1 (antibody, V domains shown) VH: QSLEESGGRLVTPGTPLTLTCTVSGFSLNSNAMGWVRQAPGKGLEYIGFIAAYGDTHNATWAKGRFTISKTSTTVDLKITSPTTEDTATYFCASTYGGDGGWYFNIWGPGTLVTVSE VL: AFELTQTPSSVEAAVGGTVIIKCQASQNIVRYLSWYQQKPGQPPKLLIYEASNLASGVPSRFSGSGSGTEFTLTISDLECADAATYYCQSYYDAESFNTFGGGTEVVVKG", "values": [
      {"measurement": "MFI", "setting": "[1]", "value": 4.66},
      {"measurement": "MFI", "setting": "[2]", "value": 2.83},
      {"measurement": "MFI", "setting": "[3]", "value": 0.22},
      {"measurement": "MFI", "setting": "[4]", "value": 0.94},
      {"measurement": "MFI", "setting": "[5]", "value": 0.37},
      {"measurement": "MFI", "setting": "[6]", "value": 1.53},
      {"measurement": "MFI", "setting": "[7]", "value": 7.73},
      {"measurement": "MFI", "setting": "[8]", "value": 0.25},
      {"measurement": "MFI", "setting": "[9]", "value": 3.16},
      {"measurement": "MFI", "setting": "[10]", "value": 15.3},
      {"measurement": "MFI", "setting": "[11]", "value": 0.31},
      {"measurement": "MFI", "setting": "[12]", "value": 1.98},
      {"measurement": "MFI", "setting": "[13]", "value": 12.4},
      {"measurement": "MFI", "setting": "[14]", "value": 14.3},
      {"measurement": "信号抑制率", "setting": "[15]", "value": "> 90", "unit": "%"},
      {"measurement": "MFI", "setting": "[16]", "value": 0.53},
      {"measurement": "MFI", "setting": "[17]", "value": 15.3},
      {"measurement": "MFI", "setting": "[18]", "value": 0.81},
      {"measurement": "MFI", "setting": "[19]", "value": 1.28},
      {"measurement": "MFI", "setting": "[20]", "value": 15.3},
      {"measurement": "信号抑制率", "setting": "[21]", "value": "> 90", "unit": "%"},
      {"measurement": "MFI", "setting": "[22]", "value": 4.37}
    ]}
  ]
}
